Data: patent US20110301073, “Novel DNA-binding proteins and uses thereof” (Sangamo BioSciences, Inc., published 2011)

How the values were obtained:
TALE13 +79 FokI = biological target: T1, TALE13 +79 FokI (Xanthomonas axonopodis (engineered)); experiment: cleavage_in_vitro; two inverted sites, 16 bp gap; NEB Buffer 2, 37 C; details: tags: FLAG, NLS, chain copies: 2
T1 chain: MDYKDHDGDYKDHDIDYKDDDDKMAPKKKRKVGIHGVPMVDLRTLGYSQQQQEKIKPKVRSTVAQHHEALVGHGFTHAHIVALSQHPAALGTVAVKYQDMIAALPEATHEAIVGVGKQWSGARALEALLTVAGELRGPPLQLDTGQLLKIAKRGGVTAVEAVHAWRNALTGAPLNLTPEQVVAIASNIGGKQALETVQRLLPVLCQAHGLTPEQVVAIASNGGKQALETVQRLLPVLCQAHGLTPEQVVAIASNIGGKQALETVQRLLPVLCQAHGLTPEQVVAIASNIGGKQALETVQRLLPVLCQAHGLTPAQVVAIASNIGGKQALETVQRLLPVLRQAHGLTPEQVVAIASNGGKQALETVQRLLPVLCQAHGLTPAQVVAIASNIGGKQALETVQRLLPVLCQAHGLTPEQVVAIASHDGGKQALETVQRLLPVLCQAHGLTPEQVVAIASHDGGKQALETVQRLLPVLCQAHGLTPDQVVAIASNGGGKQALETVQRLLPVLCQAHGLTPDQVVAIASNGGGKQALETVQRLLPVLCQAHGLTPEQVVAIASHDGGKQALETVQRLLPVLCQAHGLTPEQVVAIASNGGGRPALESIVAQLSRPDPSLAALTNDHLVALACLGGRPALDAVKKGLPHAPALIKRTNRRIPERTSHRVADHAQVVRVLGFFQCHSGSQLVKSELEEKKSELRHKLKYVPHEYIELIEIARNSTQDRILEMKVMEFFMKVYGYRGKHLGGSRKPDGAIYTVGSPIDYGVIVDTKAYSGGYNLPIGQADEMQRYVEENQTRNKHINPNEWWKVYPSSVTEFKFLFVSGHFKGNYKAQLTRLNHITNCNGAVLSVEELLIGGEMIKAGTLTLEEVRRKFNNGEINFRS
Procedure: (§1) TALE domain fusions were also constructed using Fold cleavage half domains. For these examples, wild type FokI half cleavage domains were used so that for nuclease activity, a homodimer must be formed from two of the fusions. For these fusions, the TALE13 DNA binding domain was fused to each FokI half domain by cloning the TALE DNA binding domain into a plasmid adjacent to FokI-specifying sequence. In addition, various linkers were tested for use between the DNA binding domain and the nuclease domain. Linkers L2 and L8 were used which are as follows: L2=GS (SEQ ID NO:71) and L8=[…] (SEQ ID NO:72). The target sites were cloned into a TOPO2.1 target vector (Invitrogen) with varying gap spacings between each target binding site such that the two were separated from each other by 2 to 22 bp. PCR amplification of an approximately 1 kb region of the target vector was done to generate the target DNAs. The TALE DNA binding domains were also truncated as described previously, and are described using the same nomenclature as described above in Examples 2 and 6. The TALE domain nuclease fusion clones were expressed in the TNT Rabbit Reticulocyte Lysate system by adding 5 μL of water containing 250 nanograms of the nuclease fusion clone plasmid to 20 μL of lysate and incubating at 30° C. for 90 minutes.
(§2) The lysate was then used to cleave the target DNAs as follows: 2.5 μL of lysate were added to a 50 μL reaction containing 50 nanograms of PCR-amplified target DNA and a final Buffer 2 (New England Biolabs) concentration of 1×. The cleavage reaction was for one hour at 37° C., followed by a 20 minute heat inactivation stage at 65° C. The reaction was then centrifuged at high speed to separate the target DNA from the lysate, causing the lysate to condense into a pellet in the reaction well. The DNA-containing supernatant was pipetted off and run on an ethidium bromide-stained agarose gel (Invitrogen) to separate intact target DNA from cleaved target DNA. The agarose gel was then analyzed using AlphaEaseFC (Alpha Innotech) software to measure the amount of target DNA present in the large uncleaved DNA band and the two smaller DNA bands resulting from a single cleavage event of the target DNA. The percentage of cleaved DNA out of the total amount of target DNA loaded into the gel represents the percent cleavage in each reaction.

TALE13 +50 FokI = biological target: T2, TALE13 +50 FokI (Xanthomonas axonopodis (engineered)); experiment: as above; details: tags: FLAG, NLS, chain copies: 2
T2 chain: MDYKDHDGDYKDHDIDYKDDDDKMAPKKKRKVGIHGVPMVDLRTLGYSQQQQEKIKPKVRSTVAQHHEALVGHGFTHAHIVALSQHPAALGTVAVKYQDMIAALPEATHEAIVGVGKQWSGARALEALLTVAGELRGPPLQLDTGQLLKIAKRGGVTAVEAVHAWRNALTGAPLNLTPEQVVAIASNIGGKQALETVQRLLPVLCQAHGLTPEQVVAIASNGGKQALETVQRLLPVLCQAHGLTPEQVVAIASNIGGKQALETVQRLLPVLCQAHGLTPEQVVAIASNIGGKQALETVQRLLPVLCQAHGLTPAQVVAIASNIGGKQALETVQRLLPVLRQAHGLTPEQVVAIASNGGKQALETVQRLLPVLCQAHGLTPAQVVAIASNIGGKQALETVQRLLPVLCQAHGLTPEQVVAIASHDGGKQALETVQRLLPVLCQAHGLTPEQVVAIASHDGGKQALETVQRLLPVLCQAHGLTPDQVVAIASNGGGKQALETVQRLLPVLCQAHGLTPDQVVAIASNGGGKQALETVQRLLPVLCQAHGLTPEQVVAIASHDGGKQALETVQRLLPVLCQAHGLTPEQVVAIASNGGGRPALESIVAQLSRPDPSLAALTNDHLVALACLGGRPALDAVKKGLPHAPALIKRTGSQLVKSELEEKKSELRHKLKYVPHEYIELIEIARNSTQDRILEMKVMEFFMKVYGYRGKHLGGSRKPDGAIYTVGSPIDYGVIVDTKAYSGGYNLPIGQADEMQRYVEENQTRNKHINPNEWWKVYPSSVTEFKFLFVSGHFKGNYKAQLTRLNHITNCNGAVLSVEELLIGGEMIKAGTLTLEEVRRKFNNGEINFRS
Procedure: as §1, §2

B1: TALE13 target (dsDNA)
DNA 1: TATAAATACCTTCT
DNA 2: AGAAGGTATTTATA
B1 was tested. Which activity (TALE13 +79 FokI) did it give?
The activity was 56 % cleavage.

And the activity (TALE13 +50 FokI)?
The activity was 83 % cleavage.
